The text below walks through data of paper doi:10.1101/2021.08.12.455998.

For experiment [1], the target named is empty disulfide-stabilized HLA-A*02:01 molecule (HLA-A*02:01(Y84C/A139C) heavy chain with beta-2 microglobulin) (human). Put plainly: nDSF thermal shift. In general terms: In DSF a fluorescence change marks the thermal transition of the protein.
Experiment [2] has the same target. Briefly: native MS.

B1: LV8 (peptide)
peptide: LVPMVATV
Regarding B1, the ΔTm in experiment [1] worked out at 11.6 K. This molecule gave a Kd in experiment [2] of 0.07 µM.

B2: MV5 (peptide)
peptide: MVATV
As to B2, the stoichiometry N in experiment [2] turned out to be 2.

B3: NT8 (peptide)
peptide: NLVPMVAT
In turn, B3 yielded a dissociation constant Kd in experiment [2] of 30 µM.

B4: GV9 (peptide)
peptide: GLGGGGGGV
Consider B4, for which the ΔTm in experiment [1] was determined as 6.4 K. Besides, in experiment [2], the percent of dsA2 as dsA2/pep (AUC) at 10 V was 43%.

The Kd is the concentration at which binding is half-saturated. A low value points to higher affinity. Usually stoichiometry N stands for a count of units in the complex or per binding partner.
